Measured values as given in publication PMC10726570.

Key:
[1] = biological target: human neonatal Fc receptor (human-FcRn) (human) (UniProt P55899)
[2] = biological target: monkey neonatal Fc receptor (monkey-FcRn) (monkey) (UniProt Q8SPV9); assay: SPR; format and conditions not told in the text (who was immobilised, pH, buffer); shown in Fig. S1B-C
[3] = biological target: human neonatal Fc receptor (human-FcRn) (human) (UniProt P55899); assay: as above

For “PAT101, recombinant human albumin (rHA)-conjugated Aspergillus flavus urate oxidase (from UniProt Q00511 1-302; P02768 25-609) (complex)”, the plasma half-life T1/2 (uricase activity) after a single i.v. dose in TG mice expressing human FcRn [1] was 95 h, the Kd [2] was 6.85 µM and the Kd [3] was 2.94 µM.
